Results from article PMC9482650, “Quantitative fragmentomics allow affinity mapping of interactomes” (Nature Communications, 2022).

T1: ARHGEF11, O15085
T1 sequence (O15085 42-136, limits assumed, looked up): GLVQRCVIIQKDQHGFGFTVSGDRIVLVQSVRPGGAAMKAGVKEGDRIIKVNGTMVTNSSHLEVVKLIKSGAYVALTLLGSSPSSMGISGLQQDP

T2: GRIP1_2, Q9Y3R0
T2 sequence (Q9Y3R0 145-248, limits assumed, looked up): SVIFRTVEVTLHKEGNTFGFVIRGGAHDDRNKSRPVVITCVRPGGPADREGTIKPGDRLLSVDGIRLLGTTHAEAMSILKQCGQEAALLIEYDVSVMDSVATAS

T3: HTRA3, P83110
T3 sequence (P83110 354-453, limits assumed, looked up): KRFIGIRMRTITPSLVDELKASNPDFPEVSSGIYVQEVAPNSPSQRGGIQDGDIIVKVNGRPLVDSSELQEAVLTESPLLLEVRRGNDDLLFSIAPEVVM

T4: APBA2_2, Q99767
T4 sequence (Q99767 654-744, limits assumed, looked up): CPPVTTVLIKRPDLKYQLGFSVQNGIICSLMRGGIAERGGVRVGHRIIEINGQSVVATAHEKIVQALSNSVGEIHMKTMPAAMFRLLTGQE

T5: MPP6, Q9NZW5
T5 sequence (Q9NZW5 125-219, limits assumed, looked up): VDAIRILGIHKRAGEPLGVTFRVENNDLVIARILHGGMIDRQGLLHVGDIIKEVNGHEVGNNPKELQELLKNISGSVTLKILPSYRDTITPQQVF

T6: MPDZ_12, O75970
T6 sequence (O75970 1857-1958, limits assumed, looked up): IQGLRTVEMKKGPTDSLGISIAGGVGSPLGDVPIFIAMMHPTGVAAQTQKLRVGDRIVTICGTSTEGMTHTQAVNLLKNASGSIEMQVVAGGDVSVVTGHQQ

T7: PARD3B_1, Q8TEW8
T7 sequence (Q8TEW8 196-299, limits assumed, looked up): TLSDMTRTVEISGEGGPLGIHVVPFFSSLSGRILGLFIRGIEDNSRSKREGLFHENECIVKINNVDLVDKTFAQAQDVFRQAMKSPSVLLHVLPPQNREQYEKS

T8: APBA1_1, Q02410
T8 sequence (Q02410 651-752, limits assumed, looked up): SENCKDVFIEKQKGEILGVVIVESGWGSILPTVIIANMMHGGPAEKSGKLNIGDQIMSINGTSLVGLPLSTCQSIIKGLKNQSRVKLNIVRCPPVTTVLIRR

T9: DLG3_2, Q92796
T9 sequence (Q92796 221-321, limits assumed, looked up): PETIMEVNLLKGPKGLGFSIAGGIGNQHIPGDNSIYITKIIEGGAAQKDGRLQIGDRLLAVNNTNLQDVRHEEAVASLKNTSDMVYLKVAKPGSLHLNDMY

T10: SHANK1, Q9Y566
T10 sequence (Q9Y566 658-767, limits assumed, looked up): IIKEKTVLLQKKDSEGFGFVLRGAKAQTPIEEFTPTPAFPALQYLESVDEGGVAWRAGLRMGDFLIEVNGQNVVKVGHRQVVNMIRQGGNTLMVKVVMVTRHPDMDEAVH

T11: DLG3_3, Q92796
T11 sequence (Q92796 374-475, limits assumed, looked up): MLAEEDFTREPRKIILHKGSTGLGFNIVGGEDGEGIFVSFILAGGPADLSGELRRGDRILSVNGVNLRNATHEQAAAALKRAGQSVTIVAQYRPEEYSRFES

T12: GRIP1_3, Q9Y3R0
T12 sequence (Q9Y3R0 247-346, limits assumed, looked up): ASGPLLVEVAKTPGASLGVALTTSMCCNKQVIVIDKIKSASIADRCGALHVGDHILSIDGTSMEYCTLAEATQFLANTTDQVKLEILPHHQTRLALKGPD

B1: ADGRE5, P48960 (peptide)
chain: RALRASESGI
B2: GRIP1, Q9Y3R0 (peptide)
chain: LETREPTNTL

Target: T1, ARHGEF11, O15085
Test: holdup assay
Design: key: below the threshold = too weak to quantify, mostly under pKd 3.1 to 4
Conditions: plain residues with an end cap or a label only (N-terminal biotin on a linker: ado-ado)

Binder | pKd
B1 | below the threshold
B2 | below the threshold

Target: T2, GRIP1_2, Q9Y3R0
Test: holdup assay
Design: key: below the threshold = too weak to quantify, mostly under pKd 3.1 to 4
Conditions: plain residues with an end cap or a label only (N-terminal biotin on a linker: ado-ado)

Binder | pKd
B1 | below the threshold
B2 | below the threshold

Target: T3, HTRA3, P83110
Test: holdup assay
Design: key: below the threshold = too weak to quantify, mostly under pKd 3.1 to 4
Conditions: plain residues with an end cap or a label only (N-terminal biotin on a linker: ado-ado)

Binder | pKd
B1 | below the threshold
B2 | below the threshold

Target: T4, APBA2_2, Q99767
Test: holdup assay
Design: key: below the threshold = too weak to quantify, mostly under pKd 3.1 to 4
Conditions: plain residues with an end cap or a label only (N-terminal biotin on a linker: ado-ado)

Binder | pKd
B1 | below the threshold
B2 | below the threshold

Target: T5, MPP6, Q9NZW5
Test: holdup assay
Design: key: below the threshold = too weak to quantify, mostly under pKd 3.1 to 4
Conditions: plain residues with an end cap or a label only (N-terminal biotin on a linker: ado-ado)

Binder | pKd
B1 | 3.59
B2 | 3.61

Target: T6, MPDZ_12, O75970
Test: holdup assay
Design: key: below the threshold = too weak to quantify, mostly under pKd 3.1 to 4
Conditions: plain residues with an end cap or a label only (N-terminal biotin on a linker: ado-ado)

Binder | pKd
B1 | below the threshold
B2 | below the threshold

Target: T7, PARD3B_1, Q8TEW8
Test: holdup assay
Design: key: below the threshold = too weak to quantify, mostly under pKd 3.1 to 4
Conditions: plain residues with an end cap or a label only (N-terminal biotin on a linker: ado-ado)

Binder | pKd
B1 | below the threshold
B2 | 3.84

Target: GOPC, Q9HD26
Test: holdup assay
Design: key: below the threshold = too weak to quantify, mostly under pKd 3.1 to 4
Conditions: plain residues with an end cap or a label only (N-terminal biotin on a linker: ado-ado)

Binder | pKd
B1 | below the threshold
B2 | below the threshold

Target: SCRIB_2, Q14160
Test: holdup assay
Design: key: below the threshold = too weak to quantify, mostly under pKd 3.1 to 4
Conditions: plain residues with an end cap or a label only (N-terminal biotin on a linker: ado-ado)

Sequence of SCRIB_2, Q14160 (Q14160 857-960): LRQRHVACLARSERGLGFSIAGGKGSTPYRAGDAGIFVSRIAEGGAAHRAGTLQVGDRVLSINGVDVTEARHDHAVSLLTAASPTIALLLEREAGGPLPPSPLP

Binder | pKd
B1 | below the threshold
B2 | below the threshold

Target: GRID2IP_2, A4D2P6
Test: holdup assay
Design: key: below the threshold = too weak to quantify, mostly under pKd 3.1 to 4
Conditions: plain residues with an end cap or a label only (N-terminal biotin on a linker: ado-ado)

Sequence of GRID2IP_2, A4D2P6 (A4D2P6 272-370): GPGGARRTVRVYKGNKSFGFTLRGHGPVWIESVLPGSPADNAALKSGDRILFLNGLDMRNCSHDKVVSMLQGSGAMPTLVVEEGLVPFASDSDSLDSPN

Binder | pKd
B1 | below the threshold
B2 | below the threshold

Target: GRIP2_4, Q9C0E4
Test: holdup assay
Design: key: below the threshold = too weak to quantify, mostly under pKd 3.1 to 4
Conditions: plain residues with an end cap or a label only (N-terminal biotin on a linker: ado-ado)

Sequence of GRIP2_4, Q9C0E4 (Q9C0E4 446-548): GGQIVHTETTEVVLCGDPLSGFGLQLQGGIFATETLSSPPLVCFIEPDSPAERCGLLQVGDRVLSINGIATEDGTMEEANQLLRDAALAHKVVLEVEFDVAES

Binder | pKd
B1 | below the threshold
B2 | below the threshold

Target: DLG2_3, Q15700
Test: holdup assay
Design: key: below the threshold = too weak to quantify, mostly under pKd 3.1 to 4
Conditions: plain residues with an end cap or a label only (N-terminal biotin on a linker: ado-ado)

Binder | pKd
B1 | below the threshold
B2 | below the threshold

Target: GRASP, Q7Z6J2
Test: holdup assay
Design: key: below the threshold = too weak to quantify, mostly under pKd 3.1 to 4
Conditions: plain residues with an end cap or a label only (N-terminal biotin on a linker: ado-ado)

Sequence of GRASP, Q7Z6J2 (Q7Z6J2 96-193): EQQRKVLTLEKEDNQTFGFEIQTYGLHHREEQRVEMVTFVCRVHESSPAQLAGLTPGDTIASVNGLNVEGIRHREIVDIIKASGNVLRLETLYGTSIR

Binder | pKd
B1 | below the threshold
B2 | below the threshold

Target: DLG5_1, Q8TDM6
Test: holdup assay
Design: key: below the threshold = too weak to quantify, mostly under pKd 3.1 to 4
Conditions: plain residues with an end cap or a label only (N-terminal biotin on a linker: ado-ado)

Sequence of DLG5_1, Q8TDM6 (Q8TDM6 617-713): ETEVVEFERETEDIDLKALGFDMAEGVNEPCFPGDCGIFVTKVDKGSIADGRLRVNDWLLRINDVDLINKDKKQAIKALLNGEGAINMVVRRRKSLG

Binder | pKd
B1 | below the threshold
B2 | below the threshold

Target: TJP1_2, Q07157
Test: holdup assay
Design: key: below the threshold = too weak to quantify, mostly under pKd 3.1 to 4
Conditions: plain residues with an end cap or a label only (N-terminal biotin on a linker: ado-ado)

Sequence of TJP1_2, Q07157 (Q07157 181-274): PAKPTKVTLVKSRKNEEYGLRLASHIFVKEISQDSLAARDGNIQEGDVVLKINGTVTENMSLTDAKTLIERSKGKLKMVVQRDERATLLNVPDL

Binder | pKd
B1 | below the threshold
B2 | below the threshold

Target: Inadl_2, Q8NI35
Test: holdup assay
Design: key: below the threshold = too weak to quantify, mostly under pKd 3.1 to 4
Conditions: plain residues with an end cap or a label only (N-terminal biotin on a linker: ado-ado)

Sequence of Inadl_2, Q8NI35 (Q8NI35 238-335): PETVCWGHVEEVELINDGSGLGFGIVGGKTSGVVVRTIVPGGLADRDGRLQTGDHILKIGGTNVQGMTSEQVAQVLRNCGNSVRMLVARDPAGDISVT

Binder | pKd
B1 | below the threshold
B2 | below the threshold

Target: T8, APBA1_1, Q02410
Test: holdup assay
Design: key: below the threshold = too weak to quantify, mostly under pKd 3.1 to 4
Conditions: plain residues with an end cap or a label only (N-terminal biotin on a linker: ado-ado)

Binder | pKd
B1 | below the threshold
B2 | below the threshold

Target: MAGI1_2, Q96QZ7
Test: holdup assay
Design: key: below the threshold = too weak to quantify, mostly under pKd 3.1 to 4
Conditions: plain residues with an end cap or a label only (N-terminal biotin on a linker: ado-ado)

Sequence of MAGI1_2, Q96QZ7 (Q96QZ7 456-580): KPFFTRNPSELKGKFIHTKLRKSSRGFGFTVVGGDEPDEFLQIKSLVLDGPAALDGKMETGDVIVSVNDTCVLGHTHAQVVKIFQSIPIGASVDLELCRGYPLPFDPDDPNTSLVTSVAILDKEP

Binder | pKd
B1 | below the threshold
B2 | below the threshold

Target: T9, DLG3_2, Q92796
Test: holdup assay
Design: key: below the threshold = too weak to quantify, mostly under pKd 3.1 to 4
Conditions: plain residues with an end cap or a label only (N-terminal biotin on a linker: ado-ado)

Binder | pKd
B1 | below the threshold
B2 | below the threshold

Target: T10, SHANK1, Q9Y566
Test: holdup assay
Design: key: below the threshold = too weak to quantify, mostly under pKd 3.1 to 4
Conditions: plain residues with an end cap or a label only (N-terminal biotin on a linker: ado-ado)

Binder | pKd
B1 | below the threshold
B2 | below the threshold

Target: T11, DLG3_3, Q92796
Test: holdup assay
Design: key: below the threshold = too weak to quantify, mostly under pKd 3.1 to 4
Conditions: plain residues with an end cap or a label only (N-terminal biotin on a linker: ado-ado)

Binder | pKd
B1 | below the threshold
B2 | below the threshold

Target: LAP2, Q96RT1
Test: holdup assay
Design: key: below the threshold = too weak to quantify, mostly under pKd 3.1 to 4
Conditions: plain residues with an end cap or a label only (N-terminal biotin on a linker: ado-ado)

Sequence of LAP2, Q96RT1 (Q96RT1 other isoform, or with tags, fused parts or gaps): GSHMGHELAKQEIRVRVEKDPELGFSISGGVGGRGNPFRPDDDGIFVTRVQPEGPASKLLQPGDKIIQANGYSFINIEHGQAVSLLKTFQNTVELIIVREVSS

Binder | pKd
B1 | below the threshold
B2 | below the threshold

Target: T12, GRIP1_3, Q9Y3R0
Test: holdup assay
Design: key: below the threshold = too weak to quantify, mostly under pKd 3.1 to 4
Conditions: plain residues with an end cap or a label only (N-terminal biotin on a linker: ado-ado)

Binder | pKd
B1 | below the threshold
B2 | below the threshold

Target: Inadl_1, Q8NI35
Test: holdup assay
Design: key: below the threshold = too weak to quantify, mostly under pKd 3.1 to 4
Conditions: plain residues with an end cap or a label only (N-terminal biotin on a linker: ado-ado)

Sequence of Inadl_1, Q8NI35 (Q8NI35 113-229): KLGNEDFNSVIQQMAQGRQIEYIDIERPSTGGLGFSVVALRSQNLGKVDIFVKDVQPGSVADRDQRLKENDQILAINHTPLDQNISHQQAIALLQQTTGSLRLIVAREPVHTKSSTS

Binder | pKd
B1 | below the threshold
B2 | below the threshold
